B1: 1.32.36-1 (antibody, human IgG1, kappa)
heavy: QVQLVQSGAEVTKPGASVRVSCEASGYNIRDYFIHWWRQAPGQGLQWVGWINPKTGQPNNPRQFQGRVSLTRHASWDFDTFSFYMDLKALRSDDTAVYFCARQRTDYWDFDVWGSGTQVTVSSASTKGPSVFPLAPSSKSTSGGTAALGCLVKDYFPEPVTVSWNSGALTSGVHTFPAVLQSSGLYSLSSVVTVPSSSLGTQTYICNVNHKPSNTKVDKKVEPKSCDKTHTCPPCPAPELLAGPDVFLFPPKPKDTLMISRTPEVTCVVVDVSHEDPEVKFNWYVDGVEVHNAKTKPREEQYNSTYRVVSVLTVLHQDWLNGKEYKCKVSNKALPLPEEKTISKAKGQPREPQVYTLPPSREEMTKNQVSLTCLVKGFYPSDIAVEWESNGQPENNYKTTPPVLDSDGSFFLYSKLTVDKSRWQQGNVFSCSVLHEALHSHYTQKSLSLSPGK
light: DIQMTQSPSSLSASVGDRVTITCQANGYLNWYQQKPGKAPKLLIYDGSNLETGVPSRFSGSRWGQEYTLTISSLQPEDIATYFCQVYEFVTPGTNLDIKRTVAAPSVFIFPPSDEQLKSGTASVVCLLNNFYPREAKVQWKVDNALQSGNSQESVTEQDSKDSTYSLSSTLTLSKADYEKHKVYACEVTHQGLSSPVTKSFNRGEC
B2: 1.2.2-1 (antibody, human IgG1)
heavy: QVQLLQSGAEVKKPGASVRVSCEASGYNIRDYFIHWWRQAPGQGLQWVGWINPKTGQPNNPRQFQGRVSLTRHASWDFDTFSFYMDLKALRSDDTAVYFCARQRSDYWDFDVWGSGTMVTVSSASTKGPSVFPLAPSSKSTSGGTAALGCLVKDYFPEPVTVSWNSGALTSGVHTFPAVLQSSGLYSLSSVVTVPSSSLGTQTYICNVNHKPSNTKVDKKVEPKSCDKTHTCPPCPAPELLAGPDVFLFPPKPKDTLMISRTPEVTCVVVDVSHEDPEVKFNWYVDGVEVHNAKTKPREEQYNSTYRVVSVLTVLHQDWLNGKEYKCKVSNKALPLPEEKTISKAKGQPREPQVYTLPPSREEMTKNQVSLTCLVKGFYPSDIAVEWESNGQPENNYKTTPPVLDSDGSFFLYSKLTVDKSRWQQGNVFSCSVLHEALHSHYTQKSLSLSPGK
VL: DIQMTQSPSSLSASVGDTVTITCQANGYLNWYQQKPGKAPKLLIYDGSKLERGVPSRFSGRRWGQEYNLTINNLQPEDIATYFCQVYEFVVPGTKVDIK
B3: 1.36.36-1 (antibody, human IgG1, kappa)
heavy: QVQLVQSGAEVKKPGASVRVSCKASGYNIRDYFMHWWRQAPGQGLQWVGWINPKTGQPNNPRQFQGRVTMTRHASWDFDTFSAYMDLSRLRSDDTATYFCARQRTDYWDFDVWGQGTMVTVSSASTKGPSVFPLAPSSKSTSGGTAALGCLVKDYFPEPVTVSWNSGALTSGVHTFPAVLQSSGLYSLSSVVTVPSSSLGTQTYICNVNHKPSNTKVDKKVEPKSCDKTHTCPPCPAPELLAGPDVFLFPPKPKDTLMISRTPEVTCVVVDVSHEDPEVKFNWYVDGVEVHNAKTKPREEQYNSTYRVVSVLTVLHQDWLNGKEYKCKVSNKALPLPEEKTISKAKGQPREPQVYTLPPSREEMTKNQVSLTCLVKGFYPSDIAVEWESNGQPENNYKTTPPVLDSDGSFFLYSKLTVDKSRWQQGNVFSCSVLHEALHSHYTQKSLSLSPGK
light: DIQMTQSPSSLSASVGDRVTITCQANGYLNWYQQKPGKAPKLLIYDGSNLETGVPSRFSGSRWGQEYTLTISSLQPEDIATYFCQVYEFVTPGTNLDIKRTVAAPSVFIFPPSDEQLKSGTASVVCLLNNFYPREAKVQWKVDNALQSGNSQESVTEQDSKDSTYSLSSTLTLSKADYEKHKVYACEVTHQGLSSPVTKSFNRGEC
B4: 1.3.1-1 (antibody, human IgG1, kappa)
heavy: QVSLLQSGAAVTKPGASVRVSCEASGYNIRDYFIHWWRQAPGQGLQWVGWINPKTGQPNNPRQFQGRVSLTRHASWDFDTFSFYMDLKALRSDDTAVYFCARQRSDYWDFDVWGSGTQVTVSSASTKGPSVFPLAPSSKSTSGGTAALGCLVKDYFPEPVTVSWNSGALTSGVHTFPAVLQSSGLYSLSSVVTVPSSSLGTQTYICNVNHKPSNTKVDKKVEPKSCDKTHTCPPCPAPELLAGPDVFLFPPKPKDTLMISRTPEVTCVVVDVSHEDPEVKFNWYVDGVEVHNAKTKPREEQYNSTYRVVSVLTVLHQDWLNGKEYKCKVSNKALPLPEEKTISKAKGQPREPQVYTLPPSREEMTKNQVSLTCLVKGFYPSDIAVEWESNGQPENNYKTTPPVLDSDGSFFLYSKLTVDKSRWQQGNVFSCSVLHEALHSHYTQKSLSLSPGK
light: DIQMTQSPSSLSASVGDTVTITCQANGYLNWYQQRRGKAPKLLIYDGSKLERGVPSRFSGRRWGQEYNLTINNLQPEDIATYFCQVYEFVVPGTRLDLKRTVAAPSVFIFPPSDEQLKSGTASVVCLLNNFYPREAKVQWKVDNALQSGNSQESVTEQDSKDSTYSLSSTLTLSKADYEKHKVYACEVTHQGLSSPVTKSFNRGEC
B5: 1.2.1-1 (antibody, human IgG1, kappa)
heavy: QVQLLQSGAEVKKPGASVRVSCEASGYNIRDYFIHWWRQAPGQGLQWVGWINPKTGQPNNPRQFQGRVSLTRHASWDFDTFSFYMDLKALRSDDTAVYFCARQRSDYWDFDVWGSGTMVTVSSASTKGPSVFPLAPSSKSTSGGTAALGCLVKDYFPEPVTVSWNSGALTSGVHTFPAVLQSSGLYSLSSVVTVPSSSLGTQTYICNVNHKPSNTKVDKKVEPKSCDKTHTCPPCPAPELLAGPDVFLFPPKPKDTLMISRTPEVTCVVVDVSHEDPEVKFNWYVDGVEVHNAKTKPREEQYNSTYRVVSVLTVLHQDWLNGKEYKCKVSNKALPLPEEKTISKAKGQPREPQVYTLPPSREEMTKNQVSLTCLVKGFYPSDIAVEWESNGQPENNYKTTPPVLDSDGSFFLYSKLTVDKSRWQQGNVFSCSVLHEALHSHYTQKSLSLSPGK
light: DIQMTQSPSSLSASVGDTVTITCQANGYLNWYQQRRGKAPKLLIYDGSKLERGVPSRFSGRRWGQEYNLTINNLQPEDIATYFCQVYEFVVPGTRLDLKRTVAAPSVFIFPPSDEQLKSGTASVVCLLNNFYPREAKVQWKVDNALQSGNSQESVTEQDSKDSTYSLSSTLTLSKADYEKHKVYACEVTHQGLSSPVTKSFNRGEC
B6: 1.34.36-1 (antibody, human IgG1, kappa)
heavy: QVQLVQSGAEVKKPGASVRVSCKASGYNIRDYFIHWWRQAPGQGLQWVGWINPKTGQPNNPRQFQGRVTLTRHASWDFDTFSFYMDLKALRSDDTAVYFCARQRTDYWDFDVWGSGTQVTVSSASTKGPSVFPLAPSSKSTSGGTAALGCLVKDYFPEPVTVSWNSGALTSGVHTFPAVLQSSGLYSLSSVVTVPSSSLGTQTYICNVNHKPSNTKVDKKVEPKSCDKTHTCPPCPAPELLAGPDVFLFPPKPKDTLMISRTPEVTCVVVDVSHEDPEVKFNWYVDGVEVHNAKTKPREEQYNSTYRVVSVLTVLHQDWLNGKEYKCKVSNKALPLPEEKTISKAKGQPREPQVYTLPPSREEMTKNQVSLTCLVKGFYPSDIAVEWESNGQPENNYKTTPPVLDSDGSFFLYSKLTVDKSRWQQGNVFSCSVLHEALHSHYTQKSLSLSPGK
light: DIQMTQSPSSLSASVGDRVTITCQANGYLNWYQQKPGKAPKLLIYDGSNLETGVPSRFSGSRWGQEYTLTISSLQPEDIATYFCQVYEFVTPGTNLDIKRTVAAPSVFIFPPSDEQLKSGTASVVCLLNNFYPREAKVQWKVDNALQSGNSQESVTEQDSKDSTYSLSSTLTLSKADYEKHKVYACEVTHQGLSSPVTKSFNRGEC
B7: Antibody A-1 (antibody, human IgG1, kappa)
heavy: QVQLLQSGAAVTKPGASVRVSCEASGYNIRDYFIHWWRQAPGQGLQWVGWINPKTGQPNNPRQFQGRVSLTRHASWDFDTFSFYMDLKALRSDDTAVYFCARQRSDYWDFDVWGSGTQVTVSSASTKGPSVFPLAPSSKSTSGGTAALGCLVKDYFPEPVTVSWNSGALTSGVHTFPAVLQSSGLYSLSSVVTVPSSSLGTQTYICNVNHKPSNTKVDKKVEPKSCDKTHTCPPCPAPELLAGPDVFLFPPKPKDTLMISRTPEVTCVVVDVSHEDPEVKFNWYVDGVEVHNAKTKPREEQYNSTYRVVSVLTVLHQDWLNGKEYKCKVSNKALPLPEEKTISKAKGQPREPQVYTLPPSREEMTKNQVSLTCLVKGFYPSDIAVEWESNGQPENNYKTTPPVLDSDGSFFLYSKLTVDKSRWQQGNVFSCSVLHEALHSHYTQKSLSLSPGK
light: DIQMTQSPSSLSASVGDTVTITCQANGYLNWYQQRRGKAPKLLIYDGSKLERGVPSRFSGRRWGQEYNLTINNLQPEDIATYFCQVYEFVVPGTRLDLKRTVAAPSVFIFPPSDEQLKSGTASVVCLLNNFYPREAKVQWKVDNALQSGNSQESVTEQDSKDSTYSLSSTLTLSKADYEKHKVYACEVTHQGLSSPVTKSFNRGEC
B8: 1.35.36-1 (antibody, human IgG1, kappa)
heavy: QVQLVQSGAEVKKPGASVRVSCKASGYNIRDYFMHWWRQAPGQGLQWVGWINPKTGQPNNPRQFQGRVTMTRHASWDFDTFSFYMDLSRLRSDDTATYFCARQRTDYWDFDVWGQGTMVTVSSASTKGPSVFPLAPSSKSTSGGTAALGCLVKDYFPEPVTVSWNSGALTSGVHTFPAVLQSSGLYSLSSVVTVPSSSLGTQTYICNVNHKPSNTKVDKKVEPKSCDKTHTCPPCPAPELLAGPDVFLFPPKPKDTLMISRTPEVTCVVVDVSHEDPEVKFNWYVDGVEVHNAKTKPREEQYNSTYRVVSVLTVLHQDWLNGKEYKCKVSNKALPLPEEKTISKAKGQPREPQVYTLPPSREEMTKNQVSLTCLVKGFYPSDIAVEWESNGQPENNYKTTPPVLDSDGSFFLYSKLTVDKSRWQQGNVFSCSVLHEALHSHYTQKSLSLSPGK
light: DIQMTQSPSSLSASVGDRVTITCQANGYLNWYQQKPGKAPKLLIYDGSNLETGVPSRFSGSRWGQEYTLTISSLQPEDIATYFCQVYEFVTPGTNLDIKRTVAAPSVFIFPPSDEQLKSGTASVVCLLNNFYPREAKVQWKVDNALQSGNSQESVTEQDSKDSTYSLSSTLTLSKADYEKHKVYACEVTHQGLSSPVTKSFNRGEC
B9: 1.33.36-1 (antibody, human IgG1, kappa)
heavy: QVQLVQSGAEVKKPGASVRVSCKASGYNIRDYFIHWWRQAPGQGLQWVGWINPKTGQPNNPRQFQGRVTLTRHASWDFDTFSFYMDLKALRSDDTATYFCARQRSDYWDFDVWGSGTQVTVSSASTKGPSVFPLAPSSKSTSGGTAALGCLVKDYFPEPVTVSWNSGALTSGVHTFPAVLQSSGLYSLSSVVTVPSSSLGTQTYICNVNHKPSNTKVDKKVEPKSCDKTHTCPPCPAPELLAGPDVFLFPPKPKDTLMISRTPEVTCVVVDVSHEDPEVKFNWYVDGVEVHNAKTKPREEQYNSTYRVVSVLTVLHQDWLNGKEYKCKVSNKALPLPEEKTISKAKGQPREPQVYTLPPSREEMTKNQVSLTCLVKGFYPSDIAVEWESNGQPENNYKTTPPVLDSDGSFFLYSKLTVDKSRWQQGNVFSCSVLHEALHSHYTQKSLSLSPGK
light: DIQMTQSPSSLSASVGDRVTITCQANGYLNWYQQKPGKAPKLLIYDGSNLETGVPSRFSGSRWGQEYTLTISSLQPEDIATYFCQVYEFVTPGTNLDIKRTVAAPSVFIFPPSDEQLKSGTASVVCLLNNFYPREAKVQWKVDNALQSGNSQESVTEQDSKDSTYSLSSTLTLSKADYEKHKVYACEVTHQGLSSPVTKSFNRGEC

Legend:
HIV gp120 Bal = HIV gp120 Bal (HIV); experiment: single-point ELISA; also: test concentration or dose not given here
HIV gp120 CAAN = HIV gp120 CAAN (HIV); experiment: single-point ELISA; also: test concentration or dose not given here

Binder | ELISA (A450) (HIV gp120 Bal) | ELISA (A450) (HIV gp120 CAAN)
B1 | 0.92 | 0.64
B2 | 0.91 | 0.8
B3 | 1.12 | 0.34
B4 | 0.97 | 0.94
B5 | 0.93 | 1.01
B6 | 0.94 | 0.71
B7 | 0.91 | 1.06
B8 | 0.85 | 0.67
B9 | 0.94 | 0.82
